These results are taken from patent US20230313187A1, “MODIFICATIONS OF MAMMALIAN CELLS USING ARTIFICIAL MICRO-RNA TO ALTER THEIR PROPERTIES AND THE COMPOSITIONS OF THEIR PRODUCTS” (DNA TWOPOINTO INC., priority 2020, published 2023).

The subject of data set [1] is Cricetulus griseus interferon receptor subunit 1 mRNA. The data set is described as follows: Expression of human interferon beta from CHO cells (ELISA), amiRNA to interferon receptor subunit 1. In kind it is cell-based. To be noted: for Titer: 10-day fed batch. From the text: One multi-hairpin amiRNA, with nucleotide sequence SEQ ID NO: 598, comprised four hairpins; the first hairpin comprised a guide strand with nucleotide sequence SEQ ID NO: 95, immediately followed by a loop with nucleotide sequence SEQ ID NO: 241 and passenger strand with nucleotide sequence SEQ ID NO: 180, the second hairpin comprised a guide strand with nucleotide sequence SEQ ID NO: 97, immediately followed by a loop with nucleotide sequence SEQ ID NO: 241 and passenger strand with nucleotide sequence SEQ ID NO: 182, the third hairpin comprised a guide strand with nucleotide sequence SEQ ID NO: 96, immediately followed by a loop with nucleotide sequence SEQ ID NO: 241 and a passenger strand with nucleotide sequence SEQ ID NO: 181, the fourth hairpin comprised a guide strand with nucleotide sequence SEQ ID NO: 98, immediately followed by a loop with nucleotide sequence SEQ ID NO: 241 and a passenger strand with nucleotide sequence SEQ ID NO: 183. Each of these four guide strand sequences was a 22 base sequence that was an exact reverse complement of a different region within the Cricetulus griseus interferon receptor subunit 1 mRNA (with nucleotide sequence SEQ ID NO: 19. Each passenger strand sequence was complementary to its corresponding guide strand sequence, except that the bases in the passenger strand sequences corresponding to the 5′ base of the guide strand and the twelfth base of the guide strand were changed to be non-complementary.
(§1) Each of the five polynucleotides was a transposon which further comprised a left end comprising a 5′-TTAA-3′ target sequence immediately followed by an ITR with SEQ ID NO: 423 (which is an embodiment of SEQ ID NO: 421) and additional sequence with SEQ ID NO: 417 and a right end comprising SEQ ID NO: 419 immediately followed by an ITR with SEQ ID NO: 424 (which is an embodiment of SEQ ID NO: 422) immediately followed by a 5′-TTAA-3′ target sequence. Each transposon further comprised a gene encoding a glutamine synthetase selectable marker. […] Each transposon further comprised the same promoter operably linked to an open reading frame encoding human interferon beta. […]
(§2) Transposons were co-transfected with mRNA encoding transposase with polypeptide sequence SEQ ID NO: 502 into a CHO host lacking a functional glutamine synthetase gene. […] Interferon beta levels in the culture supernatant were measured using an ELISA assay.
(§3) Table 11. […] Transposons for the expression of human interferon beta were constructed, transfected and expressed as described in Section 6.4.1. The amiRNA SEQ ID NO is shown in column A. Following a 10-day fed batch of duplicate cultures for each sample, the concentration of interferon was measured by ELISA. Measured interferon concentrations in culture supernatants are show in columns B and C. […]

For data set [2], the system named is Cricetulus griseus interferon receptor subunit 2 mRNA. The data set is described as follows: Expression of human interferon beta from CHO cells (ELISA), amiRNA to interferon receptor subunit 2. In kind it is cell-based. To be noted: for Titer: 10-day fed batch.
Source text: One multi-hairpin amiRNA, with nucleotide sequence SEQ ID NO: 599, comprised four hairpins; the first hairpin comprised a guide strand with nucleotide sequence SEQ ID NO: 103, immediately followed by a loop with nucleotide sequence SEQ ID NO: 241 and passenger strand with nucleotide sequence SEQ ID NO: 188; the second hairpin comprised a guide strand with nucleotide sequence SEQ ID NO: 104, immediately followed by a loop with nucleotide sequence SEQ ID NO: 241 and passenger strand with nucleotide sequence SEQ ID NO: 189; the third hairpin comprised a guide strand with nucleotide sequence SEQ ID NO: 102, immediately followed by a loop with nucleotide sequence SEQ ID NO: 241 and a passenger strand with nucleotide sequence SEQ ID NO: 187; the fourth hairpin comprised a guide strand with nucleotide sequence SEQ ID NO: 105, immediately followed by a loop with nucleotide sequence SEQ ID NO: 241 and a passenger strand with nucleotide sequence SEQ ID NO: 190. Each of these four guide strand sequences was a 22 base sequence that was an exact reverse complement of a different region within the Cricetulus griseus interferon receptor subunit 2 mRNA (with nucleotide sequence SEQ ID NO: 20). Each passenger strand sequence was complementary to its corresponding guide strand sequence, except that the bases in the passenger strand sequences corresponding to the 5′ base of the guide strand and the twelfth base of the guide strand were changed to be non-complementary.
as §1, §2, §3
(ELISA stands for enzyme-linked immunosorbent assay.)

Setting [3] is: control transposon expressed 48 μg/ml.
Setting [4] is: interferon beta in supernatant, first of duplicate cultures.
Setting [5] is: interferon beta, second of duplicate cultures.

B1: SEQ ID NO: 598: four-hairpin amiRNA, guides SEQ ID NOs 95, 97, 96, 98 to Cricetulus griseus interferon receptor subunit 1 mRNA (nucleic acid)
chain: ATCTGATCTTCTGAAGAAAATATATTTCTTTTTATTCATAGCTCTTAACTAGTGGTGATAGCAATGTCAGCAGTGCCTTAAAATAACACACAAGAGCCATGTGAAGCCACAGATGATGGCTCTTGCGTGTTATTTTCAAGTAAGGTTGACCATACTCTACTCTAGTTATATTCTTTAGGCACGAATGTGTGTTTAAAAAAAATAAAAACTAGTGGTGATAGCAATGTCAGCAGTGCCTTTAAACAGTAAGTAGTCTCTGGGTGAAGCCACAGATGCCAGAGACTAATTACTGTTTACAAGTAAGGTTGACCATACTCTACTCTAGAGTTGTGTTTTAATGTATATTAATGTTACTAATGTGTTTACTAGTGGTGATAGCAATGTCAGCAGTGCCTTTGGGTGTTAATAAAAAGGCAGGTGAAGCCACAGATGCTGCCTTTTTCTTAACACCCACAAGTAAGGTTGACCATACTCTACTCTAGGTTATTTTTAGTATGATTCTGTAAAAATGAATTAATACTAACTAGTGGTGATAGCAATGTCAGCAGTGCCTTTCATTTTGACATACATACTTGGTGAAGCCACAGATGCAAGTATGTACGTCAAAATGACAAGTAAGGTTGACCATACTCTACTCTAGTCAGTTTTATTGATAGTCTTTTCAGTATTATTGATAATCTT
Turning to B1, the “Average Titer” value in data set [1] (average of duplicate cultures) was found to be 34.5 µg/mL. Moreover, the “interferon beta expression compared with the control transposon” value in data set [1] (setting [3]) was “a small decrease in interferon beta expression”. Moreover, the “Titer” value in data set [1] (setting [4]) was found to be 22.8 µg/mL; in data set [1] (setting [5]) it was 46.1 µg/mL.

B2: SEQ ID NO: 599: four-hairpin amiRNA, guides SEQ ID NOs 103, 104, 102, 105 to Cricetulus griseus interferon receptor subunit 2 mRNA (nucleic acid)
chain: ATCTGATCTTCTGAAGAAAATATATTTCTTTTTATTCATAGCTCTTAACTAGTGGTGATAGCAATGTCAGCAGTGCCTAAGACTATCAGCAAGAACCAGGGTGAAGCCACAGATGCCTGGTTCTTACTGATAGTCTCAAGTAAGGTTGACCATACTCTACTCTAGTTATATTCTTTAGGCACGAATGTGTGTTTAAAAAAAATAAAAACTAGTGGTGATAGCAATGTCAGCAGTGCCTTTGAAGATAACTTTGTCCCCGGGTGAAGCCACAGATGCCGGGGACAACGTTATCTTCACAAGTAAGGTTGACCATACTCTACTCTAGAGTTGTGTTTTAATGTATATTAATGTTACTAATGTGTTTACTAGTGGTGATAGCAATGTCAGCAGTGCCTTAAACAACAATGGATCCCCAAAGTGAAGCCACAGATGTTTGGGGATCAATTGTTGTTTCAAGTAAGGTTGACCATACTCTACTCTAGGTTATTTTTAGTATGATTCTGTAAAAATGAATTAATACTAACTAGTGGTGATAGCAATGTCAGCAGTGCCTTTGCTCATGATTGTGAACCAAAGTGAAGCCACAGATGTTTGGTTCACCATCATGAGCACAAGTAAGGTTGACCATACTCTACTCTAGTCAGTTTTATTGATAGTCTTTTCAGTATTATTGATAATCTT
Regarding B2, in data set [2] (average of duplicate cultures), the “Average Titer” value was 99.3 µg/mL. For the same molecule, the “interferon beta expression compared with the control transposon” value in data set [2] (setting [3]) is “as much as twice the expression levels of interferon beta as the control transposon”. For the same molecule, the entries for the “Titer” value in data set [2] (setting [4]) and in data set [2] (setting [5]) were 92.9 µg/mL and 105.7 µg/mL, respectively.
